# According to US20230348614A1 (VISTERRA, published 2023):
# Primed or numbered codes have the meaning given here. The star is where a group is joined. dPEG8″ = dPEG8: discrete polyethylene glycol-8 linker (between N-terminal biotin and the peptide); dPEG8 = discrete polyethylene glycol-8 linker (long chain); Biotin = O=C1N[C@H]2[C@H](CS[C@H]2CCCCC(=O)*)N1
# T1: Recombinant soluble human CD138 extracellular domain (analyte in SPR) (human, UniProt P18827 23-254)
# T1 construct: extracellular domain; also called recombinant CD138 (the antigen)
# T1 sequence (looked up): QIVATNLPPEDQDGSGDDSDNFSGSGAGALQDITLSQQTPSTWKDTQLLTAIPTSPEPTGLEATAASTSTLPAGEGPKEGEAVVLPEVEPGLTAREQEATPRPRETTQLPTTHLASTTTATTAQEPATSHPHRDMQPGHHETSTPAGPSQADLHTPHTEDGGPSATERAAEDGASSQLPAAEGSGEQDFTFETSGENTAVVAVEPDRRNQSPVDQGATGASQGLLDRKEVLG
# T2: Peptide 138-2-3 (human)
# T2 construct: Chemically synthesized human CD138 peptide, 8 residues
# T2 peptide: {Biotin-dPEG8}-PEVEPGLT-OH
# T3: Peptide 138-2-2 (human)
# T3 construct: Chemically synthesized human CD138 peptide, 7 residues
# T3 peptide: {Biotin-dPEG8}-LPEVEPG-OH
# T4: Peptide 138-2-1 (human)
# T4 construct: Chemically synthesized human CD138 peptide, 8 residues
# T4 peptide: {Biotin-dPEG8}-VLPEVEPG-OH
# T5: Peptide 6F (human)
# T5 construct: Chemically synthesized human CD138 peptide, 15 residues
# T5 peptide: {Biotin-dPEG8″}-ENTAVVAVEPDRRNQ-OH
# T6: Peptide 2A (human, N-terminal biotin through a long chain (dPEG8) linker (Biot-LC-); C-terminal -OH)
# T6 construct: Chemically synthesized human CD138 peptide, 34 residues; also called Pep2a
# T6 peptide: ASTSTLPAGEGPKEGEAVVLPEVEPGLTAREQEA
# T7: Peptide 138-6-1 (human)
# T7 construct: Chemically synthesized human CD138 peptide, 8 residues
# T7 peptide: {Biotin-dPEG8}-VVAVEPDR-OH
# T8: Peptide 2C (human, N-terminal biotin through a long chain (dPEG8) linker (Biot-LC-); C-terminal -OH)
# T8 construct: Chemically synthesized human CD138 peptide, 20 residues
# T8 peptide: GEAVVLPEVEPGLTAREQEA
# T9: Peptide 6B (human, N-terminal biotin through a long chain (dPEG8) linker (Biot-LC-); C-terminal -OH)
# T9 construct: Chemically synthesized human CD138 peptide, 33 residues
# T9 peptide: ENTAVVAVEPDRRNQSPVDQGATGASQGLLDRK
# T10: Peptide 6 (human, N-terminal biotin through a long chain (dPEG8) linker (Biot-LC-); C-terminal -OH)
# T10 construct: Chemically synthesized human CD138 peptide, 41 residues; also called Pep6
# T10 peptide: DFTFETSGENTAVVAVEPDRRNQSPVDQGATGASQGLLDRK
# T11: Peptide 2D (human)
# T11 construct: Chemically synthesized human CD138 peptide, 15 residues
# T11 peptide: {Biotin-dPEG8″}-GEAVVLPEVEPGLTA-OH
# Legend:
# [1] = target: T1, Recombinant soluble human CD138 …; assay: SPR (Carterra LSA): antibody captured by anti-human IgG, CD138 as analyte, pH 7.4, 1:1 fit
# Excerpt: This method as described, immobilizes the target (recombinant CD138) through biotinylation-streptavidin capture. Such a method may, in principle, lead to biases in binding due to either chemical modification of the capture ligand and/or avidity effects due to immobilization of this ligand on the biosensor. Moreover, this method depends on diffusion-based principles of dissociation leading to non-equilibrium binding states. Surface plasmon resonance is an orthogonal, commonly used method for determining binding kinetics and deriving affinity values based on these parameters. In this method, antibodies were directly coupled to the sensor chip and probed with several concentrations of recombinant CD138 (the antigen) varying from 100 nM to 41 nM. This evaluation was completed under two different pH conditions, i.e., pH 6.0 and pH […].
# Antibody-CD138 binding was evaluated on a Carterra LSA high throughput SPR instrument. Binding experiments were carried out using binding buffer comprising 100 mM sodium phosphate, 150 mM NaCl and 0.05% Tween-20 buffer. Buffers were adjusted to target pH of 7.4 and 6.0, by use of sodium hydroxide or HCL, respectively. All steps were also carried out independently at these respective buffer pHs. Antibodies were captured on the SPR (CMDP) chip using an anti-human IgG covalently coupled to the CMDP chip based on standard protocols, as described by the instrument manufacturer, and to create a uniform lawn on the chip surface at a target 25 nM anti-CD138 antibody concentration. Binding to CD138 was achieved by uniformly passing binding analyte with increasing concentrations of CD138 (41 nM-100 nM) for 15 minutes and allowing dissociation for 20 minutes. Analyte was flowed over the chip at a rate of 2 milliliters/minute. Raw binding data were processed using kinetics data analysis software also provided by the manufacturer (Carterra) following as 2X background subtraction that used the first six injections of buffer blanks and the internal machine reference controls. Kinetic data was analysed using a global fit and assuming a 1:1 binding interaction. Further analysis of individual binding curves (sensorgrams) with best fits were used to refine the calculation of kinetic parameters.
# Peptide 138-2-3 = target: T2, Peptide 138-2-3; assay: BLI (Octet): biotinylated peptide (50 nM) loaded on streptavidin SA biosensors, mAb 4320 in solution, PBS pH 7.4 with 0.02% Tween-20
# Peptide 138-2-2 = target: T3, Peptide 138-2-2; assay: as above
# Peptide 138-2-1 = target: T4, Peptide 138-2-1; assay: as above
# Peptide 6F = target: T5, Peptide 6F; assay: BLI (Octet): biotinylated peptide (50 nM) loaded on streptavidin SA biosensors, mAb 4320 in solution, 300 s association then dissociation, PBS pH 7.4 with 0.02% Tween-20
# Peptide 2A = target: T6, Peptide 2A; assay: as above
# Peptide 138-6-1 = target: T7, Peptide 138-6-1; assay: as above
# Peptide 2C = target: T8, Peptide 2C; assay: as above
# Peptide 6B = target: T9, Peptide 6B; assay: as above
# Peptide 6 = target: T10, Peptide 6; assay: as above
# Peptide 2D = target: T11, Peptide 2D; assay: BLI (Octet): biotinylated peptide (50 nM) on streptavidin sensors, mAb 4320 in solution, PBS pH 7.4; qualitative score
binder,measurement,setting,value
"mAb 4320 (parental humanized anti-CD138 antibody) (antibody, human IgG1, kappa, V domains shown, Full-length IgG; heavy constant region human gamma 1 (m3 allotype), light chain kappa constant*01) VH: QVQLVQSGAEVKKPGASVKVSCKASGYSFSSYYMHWVRQAPGQGLEWMGTIHPSDSTTNYNQKFQGRVTMTVDTSTRTAYMELSSLRSEDTAVYYCANFVYWGQGTTVTVSS VL: DIVMTQTPLSLSVTPGQPASISCKSSKSLLYKDGKTYLNWFLQKPGQSPQLLIYVVSTRASGVPDRFSGSGSGTDFTLKISRVEAEDVGVYYCQQLVEYPYTFGQGTKLEIKR",Kd,[1],0.2 nM
same,koff,[1],8.5e-05 s⁻¹
same,kon,[1],370000 M⁻¹ s⁻¹
same,binding result,Peptide 138-2-3,no binding
same,binding result,Peptide 138-2-2,no binding
same,binding result,Peptide 138-2-1,no binding
same,binding result,Peptide 6F,binds
same,binding result,Peptide 2A,binds
same,binding result,Peptide 138-6-1,binds
same,binding result,Peptide 2C,binds
same,binding result,Peptide 6B,binds
same,binding result,Peptide 6,binds
same,binding result,Peptide 2D,binds
